In the NTF2 design screens of Basanta et al. (2020):

Experiment: protease stability score; higher = more stable; yeast display proteolysis, trypsin and chymotrypsin;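 also: relative to predicted unfolded state with 0 unfolded-like and 1 meaning tenfold more protease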

Sequence	protease stability score
SEDHREARHAVHVFLHLLETGDEDHLVKLLDPNVRYVIGDKTHHGWEELERIRNKFKNIRITLRDRDFHIFDGRLLVLIRGELEFDGRRVDFEVITYIEKINGRWIVSEFRIHLN	1.5
SEDHRHAMEFIHHMVRAIHTGDEQILTEYLDPHVRIENENETLHGWEHRTEWMKRFDHIDRHIIVRHVEIQGNKVKVDAELRFRLHQGDFVEENEIRLRIIILKVDGRWVLHKVRFI	1.35
SEDHRMMKEALDKLIDSIETGDPELYLRLFDPDTQTRIGDKHIHGWEEIEKIFRKILERFDHFEHMHLEHFDIQGNYIHLDIRLWGKVNGKRITLNIRVVVVKYNGRWTIREESLT	1.72
SEDIDIAREMADIIIKYWETGDEDNVRQLMDPNVKFHIGDKVNIGREWMLEFVRHWKEHARMHLKVEDFRIVGDKIHVDTRIELNVNGREMHIDLHIHLRIVNGRLKSSHIEHR	1.19
SEDIEELRKVFEDWVRILRTGDEKSHKELMDPTYRNDQGEFHYHGMEDLEKFTRRYDHVNLIFRDMRLVNGVARVDGEIQLHQGDFKIDTHVIIYMLKIDGQWRIRSIEIR	2.08
SEDIEHVEEALEMFRETLITGDEEIIRRLIDPHVRIIINGREYHGREAMDHFMKRFDVIHNLHITHWEDINGRMHVHGRIEGNIDGKTDVIETRILVVKVDGQWWFETIRIG	2.27
SEDIEIVKQVLEFHIRSEITGDEDTMTELLDPHTRITIGDKHIHGREEAVRILLEIANHMRIHRFHVHQVHIYDGRLEIDMRIDREYDGKRRHQEVWWIFIKVNGRWYIHSIEIR	1.67
SEDIELVHNIMEHMAKAFTTGDERHLLNLFDPNVRFMINGQNYVGWEHLINWIEHIRIKRVDLRINDVKLIGDKLHIHGRFIVRGQIDGREIDRVEDTRINFQKINGRWIIEELHFV	2.61
SEDIKEIKDILRTMYEAFITGDWRTVAKLFDPHVRIEYDGVRLHGREHVEHFLRHLRERVEWHHIEDTQEQGDYIELHGRTILNIEIGDKRDRRDSHFILMMVKVDGRWLIHRIIIR	2.21
SEDKDNAQDLLHHVVKAWNTGDEDLTRKLFDPHVRLDINGVEIHGWRDLLRVLRELRLRVEMRVHDADFINGVIHLYTTVHSHIHFNGVDFHFHHETRMIILKINGRWLVHSITYL	0.675
SEDKEADEIIIEKIMRALTTGDENLWKRLLDPNVRFEYDGVEMHGWEEIKKLLERIDHFHVDDHKIKDVRIIDGRIDNYGRLRGTIDINGREIHTILHVRILVLKIDGKWTVESEHSK	1.43
SEDKEAFHRVMKLLLHAWRTGDEDREKELFDPNVRFIIGDKIIIGREEWLKLLRRIDHLEVDLDIKRLEVIGDKIKAEFRLHEILKIDGVEIHQEHEVRLHLHKINGRWIIERVHVE	0.845
SEDKEEAEEFVRIFNEALITGDFEFIEHLADPNVKYRQGEYHEHGRESLSHMFRFLGWSNVKIHLRHIKFYGDKIEVHGEVRIDGRTHWVNSYITKYDGRWYLTSLQIE	1.21
SEDKELADRFLNHITHLIRTGDENALSENLDPNTRLHIGDKHYIGWEEFLRIISERWKRADHQDVKLRDSRVQGDKVHLDGEIILIVDGKEIRHDFRIIVYKIDGRWHLESIRIG	2.09
SEDKELAERLYHLLLRTLITGDEKQLIDNMDPDARVHVGDKHRHGMEWMNRYLHELRIRDQDDKDIRLQGNKVHVDGHVRGNINGQEIDYRFHIELITINGVVHMINIQIR	0.945
SEDKEMADWAIEIWVKSIRTGDEHTQLHLVDPHYREDVGDKEIHGRDELRRHMHEARVDEFRHKIDRMRTQGNKVHLDGIFQMKIRIDGKVDHIEFHSRLVVEKVDGRWLVKSLHIN	1.21
SEDKHMLELALKLLKDSWKTGDEHLSERLMDPHVRLEQGDKEFHGREASQLWFRQIDHVEDMHVHRIRMINGKAYMDVHVVGNVNGKHVEFHQHIVFHKVNGRWIVESVVDS	1.26
SEDKKATNEASEIIIRLLKTGDEHLANHYIDPNVRMIFENRDVHGRETFEEWMRRVDHFHHYDVRHVHTQGDKINIDSEHNIHINGQEEIKDVYWISTKIDGKWILKSIEVR	1.28
SEDKKTLEHYFRELMHVLQTGDETEFVKLLDPDARLIIGDKSDHGREEVSRSLLEFQRILGIDHLEFRHTHLDIQGDKITIILQVRMKVNGREHHSRLIFVAEKVNGRWVLRSVIFEIH	2.18
SEDKNAVHEIVERFLKAMLTGDEHILKTLLDPHVRLHIGDKSRVGMERVIHELIHIRIHELRVESMEMRLWDGRAEVHVFGEVRQRVDGQERNITTSIILHIEKIDGRWHLTQLQFIIS	2.53
SEDMERAESFHREWLEFSRTGDEDTLRSLLDPNARLRYGDKEYHGMDSLSRVDRELRVHDSRVHDLRIIDGRVHMDVDLDGTYNGKRVLLHTHFVVEKIDGRWILRSVHIH	0.643
SEDNEHLRKFLEDFIRAMETGDWKMLFRLMDPNVRMEVNGRELHGREEAKKLIEEIISRYDHVHIEIKRAHSIGDKIEVWGISDVEIGDKKHEIPLLFILKKVDGKWIIHSIRSE	2.11
SEDNEIIHEMVQLFVDLFFTGDWEMLLSLFDPNVRMIVNGKTIHGRENIAHEVREFLERFKNVRFRDATIEHYSWQGDKLHAQIHIEGEINGRDRHSNVHIHITKIDGKWLITRIEVR	2.39
SEDQEAMDRAIKIFEEIVDTGNERLSRENMDPRTRIVFEGVHLHGREEAVRHHRELWKRVDVMEMRTEDYRFFDGRVHQTTRLHLNYNGREETYETRFLVEKVNGKWFIKSIIIV	0.272
SEDQEEAEHVFEQWIRVLTTGDEETAHKMADPNTRMHFNGKDIHGMDTIAKEFHDLGITLQSIRMRHVERQGDKIHIHSRRTFEVNGVHLNTEVHHSLVKIDGRWTFQHTYVH	0.086

Sequence	protease stability score
SEDQEESEKFLKDLIRVILTGNEESLMKLADPHARFHIGDKTYIGWDKWVRMLSERVRDLGIRIEIRVHDFHVYNGVAENDHRHHVHFENHEYNHIMILHDDKINGKWTIRTLVIK	1.13
SEDQEIAVKLLHEMMEALRTGDEDYLRRLFDPNMRFNQGDKTHHGMDWVHSFLRRYDYFEVRHVRVHHVEVQGEKIIIDGRLEGSIRVDGVLQENEISVIFIIIKINGKWFVQTIRFN	1.21
SEDQEMSDHASSLLLHTMETGDFRLLHEFLDPNTRVSVNGRDVIGRDETVRHMIEHIKILGVSKVEARLHDVKLINGVAENDVEIDFNGRRIRVWWFVEKINGRWVITHMRVL	1.47
SEDQEVAEKDLEIYSRAITTGNEHELKHLLDPNYKLIVNGQEYHGWETLRHYWKHLRVESVEFEIRSFDSQGDKLHIDGIIILHGEVDGRHTELFEDVHIRAHKINGRWHNKEVNIR	0.897
SEDQHDAEWALRLFVRLHETGDFEEIYRNADPNMRWFVNGVDSHGRENASKLLHKLMDDLGIDHVQIEHVELRVQGEKIIVHMRVTQVINGREVDSRIEVHMEKFDGKWELKHVELRIH	1.31
SEDQHELTTLLEHLLRIHRTGDFHTLERLMDPNTWTLVDGVWFVGREAVEYSNKLIKFTKRIEIDHFEIQGEKATIHGTYHSHYNGREFHIHVTTYYQKINGRWVLHSIEFR	1.38
SEDQKFFEELVRLMYEYSLTGDWELSERLLDPNALIDIDGVEFHGREIFVESMRHIRLDHIEIRHVESINGRIHAKTEVDGTVNGQRRRRDVEIHLLKVNGRWYIRRVNFK	2.45
SEDQREIKDFFKILSKALTTGDEEITSAMMDPHVRMDYNGKEHHGRDFLTELMKRADHWEHRLEVRSVRIIGDKVDVEGHMILHILIGDKEIRVRVDLDIELWKVDGRWIVKEITIK	1.04
SEDREEYHELLKRMIHALMTGDWRDFEKLFDPNARLEVNGQIFHGREDVVKWLRDVLKRYDHIEHFRIRTEEYQGDKIIMDGELHKVINGQHIVTRVRIEVWVVDGRLKRRSEREE	1.51
SEDREFAEKMLRIVSDLENTGDEEKARHLLDPNVRSVIDGQDLIGWHLRRHWLHELRIKSHRVDVHDIHVYNGQIEFNVREDGNIVVNGVEIRIELRTKMTFRKFDGQWYVKSIEIK	1.45
SEDREFMKTDLERWRHDLLTGDEESSHRLADPHVRVYIGDKEFIGREELRRVLREFIERFKGARIEVRLRSLHLIDGRMHIDTEWHIHVGEKHIMLDIKINQDKVNGRWELRNEVIS	1.11
SEDRENFHRFWKELLRYYLTGDEDALTRMFDPNAQMIYGDKHYHGREVLEFIHHQVDVFRSVEIESSRSINGVVIIHVRLNGEYNGQQENTEFTLVFEKINGRWRIKQVRSE	1.11
SEDRENIYRQIREVEEALKTGDEELMLHLMDPHVRIDINGRHNHGREEMVRFIREIRISLKHVDIHHVQDDENELIVHVRVNLVIEVDGKRREEEDNALFIFVKIDGRWVFSIIRIQ	1.76
SEDREQVHRFFEQFSRDTLTGNEERNFEMADPHTRFDIDGRIIIGRDIILHHWKEEMRKHGAEMKIHIHHVRVQGDKATVDLRVEIHINGRTYEYKVVMIVEKIDGRWVLTQIKYE	0.365
SEDRESAKWFVEMELELFLTGDFEKRLHLADPNAKIRIEINGRKHSTHGMREFLEHLLRLGIDVSHVDHIQVENYNGKLEMNLNLDIRIDGQRRHVEIHIIVDKFDGRWVLRELKVNIR	0.642
SEDRKFIKEMFEETFRRWETGDEDHIRRYVDPHTKLRILIDGREHTHHGREEFTKMMIDLSEQLGIKHLHIENLHIQGDKAELRGREEVGDKDEHVTIIAHKVNGQWTIETLHIEVR	-0.376
SEDRKLAEILVKITMDILHTGDEEEWLKLLDPHTRIDFDGRDMHGREFFMKVFRDWGIDNIEVHLHDVKVQGDFLDINVSVHINGRKIDHRLIVEKIDGRWIIREFEVR	1.58
SEDRQIAEQIVEDLSTSTVTGDWRLILELLDPDTRIVVDGVDLHGREEFLRFFERIDHMRARRTRLSDFRSYGDKVEADVDIKMEYIVDGRNITERFKERFIIIKVNGRWIVKEWRLK	2.61
SEDSEDAKKVVEISIHTVVTGDEHTNTRLFDPHVRIEIGDKEIHGREKFVHIIRHWRMEAHVEVDEVKRQGDKVRVDGHVRIILDINGRKIDIESQVDVNILKVNGRWLIESEHIH	1.08
SEDSEHAVEYMRLLRESMHTGDEKSWEDMMDPNMRILINGKDLIGWEEFSEFLRRFDHWEIRHVEIKDTKLINGRIELKGRMDIRLTINGKETSHVRNVHILSLKVNGRWILKSIEIE	1.34
SEDSEQALTIIEQLTKNLATGDEDTAEELVDPNVRINIGDKTIHGMHELSRFLLELRSEHRSHIRDVRVQGDKINVEGEDEIIIQVNGQEIRIRKHVHWIIDKIDGVWFVRSVNIH	1.89
SEDSERAREVWEDLFKAILTGDEDLLRELVDPNVRLEIGDKELVGWEHMIYHLRDHLRRYKNMRLELRIRHVEHQGDKLHLNVLLILIQGDKRIEFEVEVLIEKVNGRWILKEIRIK	1.38
SEDTATAHLMVEYFTKSVHTGDEHTTKRQVDPTMRFDFNGKQIIGREKWKEDLLHWRMETTSHVDDFKLQGDKVRSRTTLHMILHFDGVVYHNTYDTEIIYHKVDGRWYFTEFHVR	1.14
SEDTEKIRKFEELLIRLLETGDFDTLTRLLDPHVRYVYNGQDFHGWEFLLHYLRELGVKHFHFRDFRIQGDWAHIDSEVVVGDKHYKTRIVLLKFDGRWRLHMIEVV	2.44
SEDTEMVRIVLEHIEHVWRTGDEHTLRELMDPHVRMDINGREHHGREHVSEIFEQEMRELGADHFRIDHKHVRIINGRIILYLRVKTHIGEKRLDIEIIIILSKVDGRWFIKEISIRHI	1.11
